Measured values as given in the supplement of paper PMC10567573.
± gives the standard deviation.

Assay: protein stability index of a GFP-peptide fusion (GPS, HEK-293T) (PSI 1-6); higher = more stable
[1] = treatment: DMSO, c terminus: a fixed tail appended
[2] = treatment: MLN4924 1 uM, 8 h, c terminus: a fixed tail appended
[3] = treatment: DMSO, c terminus: native
[4] = treatment: MLN4924 1 uM, 8 h, c terminus: native
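Further: 24-mer peptide tiles fused after GFP, lentivirally expressed, FACS-sorted into six equal bins by GFP/DsRed ratio, decoded by Illumina sequencing, PSI is the read-weighted mean bin number.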

| Sequence | protein stability index [1] | protein stability index [2] | protein stability index [3] | protein stability index [4] |
| --- | --- | --- | --- | --- |
| GGRPGGRGAPAVQQNIPSTLLQDH [WAS] | 4.81 ± 0.13 | 4.77 ± 0.23 |  |  |
| GGSHPSRPNSRHTPSFSGDSSSSC [VDR] | 4.75 ± 0.28 | 4.73 ± 0.19 |  |  |
| GGYAIAVVLLQGAELLLAARLLGA [TSPAN10] | 2.81 ± 0.53 | 2.96 ± 0.32 |  |  |
| GHDKCVSWMCTRSGNMLGRHFFTS [WDFY1] | 2.35 ± 0.36 | 2.35 ± 0.18 |  |  |
| GHIILNSMHKYQPRLHIVKADENN [TBX5] | 2.82 ± 0.48 | 2.95 ± 0.018 |  |  |
| GHMLQHHGNSGHPLVLSYIDLSAW [HDAC6] | 2.24 ± 0.33 | 1.85 ± 0.19 |  |  |
| GIGDMAFEGDMGAAGGDGELGSPL [PSD2] | 5.37 ± 0.25 | 5.46 ± 0.16 |  |  |
| GISVPSGLFVPSLLCGAAFGRLVA [CLCN6] | 2.62 ± 1.2 | 2.51 ± 0.97 |  |  |
| GKKQVPCFASMLTKKLHFFPKSN [CASP6] |  |  | 2.82 ± 0.27 | 3.51 ± 0.69 |
| GKKVAVVLMDTQGAFDSQSTVKDC [ATL3] | 3.46 ± 0.87 | 3.66 ± 0.44 |  |  |
| GKLKAPPKPCAGNQGTQITVEDLF [MLH1] |  | 3.65 ± 0.42 |  |  |
| GLASWPLARGIHVAGILSLLLGTA [POMT2] | 2.52 ± 0.52 | 2.18 ± 0.49 |  |  |
| GNEKITMQNLNDRLASYLDKVRAL [KRT15] | 2.6 ± 0.73 | 2.78 ± 0.5 |  |  |
| GNLSVLDVGCISVTVPSMLSRLLS [OR3A1] | 2.09 ± 0.49 | 2.29 ± 0.18 |  |  |
| GPLFNFDVHDDVRLLSDATVEKDE [FAM50A] | 5.23 ± 0.17 | 5.43 ± 0.11 |  |  |
| GQCVQAFETHESDINSVRYYPSGD [GNB5] | 4.52 ± 0.12 | 4.46 ± 0.093 |  |  |
| GQKLVVPGLLGSMALSNHYRSEDL [FBXO3] | 2.92 ± 0.21 | 3.17 ± 0.35 |  |  |
| GQRFYSRVLSPLHRGPSGHTEASA | 3.74 ± 0.045 | 3.79 ± 0.29 |  |  |
| GQTYVDAGYEVDKIAQNLDFVNLM [CHIT1] | 3.01 ± 0.27 | 3.23 ± 0.45 |  |  |
| GRSREELDELTGEVAGGGTPLLIA [FEM1A] | 4.6 ± 0.26 | 4.77 ± 0.26 |  |  |
| GSAAGHVLVKDNGLGCKDLDLIFH [TENT5C] | 2.59 ± 0.32 | 2.84 ± 0.44 |  |  |
| GSEKVTMQNLNDRLASYLDKVRAL [KRT16] | 2.88 ± 0.2 | 2.89 ± 0.25 |  |  |

| Sequence | protein stability index [1] | protein stability index [2] | protein stability index [3] | protein stability index [4] |
| --- | --- | --- | --- | --- |
| GSESYKSSAGSAEQTAPGDSTGYM [EHMT1] | 5.16 ± 0.25 | 5.21 ± 0.3 |  |  |
| GTAITSQYLAERYKVNTPMLQSFI [SLC35F2] | 2.58 ± 0.57 | 2.26 ± 0.38 |  |  |
| GTGLVLDEQLNEFHCLWDDSFPEG [HDAC6] | 4.12 ± 0.34 | 3.96 ± 0.16 |  |  |
| GTWVTFGGQITDEMAEQLMTLAYD [KCNAB2] | 2.17 ± 0.37 | 2.28 ± 0.29 |  |  |
| GYIDPEELAEIFRASGEHVTDEEI [TNNC2] | 5.01 ± 0.87 | 4.99 ± 0.17 |  |  |
| GYLIKILTNSNLPEEELDFFEILR [CNOT7] | 2.15 ± 0.25 | 2.23 ± 0.3 |  |  |
| GYNPDYDESGGPDNEDYPLFRELW [KLHDC10] | 3.37 ± 0.36 | 3.47 ± 0.18 |  |  |
| HAIYSLSYPMRRSYRYKLLNWAYQ [STEAP1] | 2.33 ± 0.71 | 2.63 ± 0.61 |  |  |
| HFSLRVQSRANGVKYPELVLEHSL [PCDHGA10] | 2.35 ± 0.29 | 2.27 ± 0.35 |  |  |
| HFTAMVWKNTKKMGVGKASASDGS [GLIPR2] | 3.2 ± 0.14 | 3.36 ± 0.36 |  |  |
| HGCEYSCVNMDRSFACQCPEGHVL [MATN2] | 3.57 ± 0.29 | 3.61 ± 0.26 |  |  |
| HLKSSRNSTSVKKKSSRNIFSIVF [P2RY14] | 2.39 ± 0.48 | 2.13 ± 0.55 |  |  |
| HMFVWGGYKSNQVRGLYDFYLPRE [KLHDC2] | 2.24 ± 0.26 | 2.19 ± 0.5 |  |  |
| HPSENIIAVAATNNLYIFQDKVN [PPP2R2B] |  |  | 2.44 ± 0.22 | 2.64 ± 0.21 |
| HQEAEMAQNAVRLHYGLPVVVKLL [CTNNB1] | 2.58 ± 0.18 | 2.62 ± 0.21 |  |  |
| HQGHSDQHHHHHHHHHGRDFLLRA [RHOBTB2] | 3.45 ± 0.11 | 3.65 ± 0.24 |  |  |
| HRMVVKIGDFGISKILSSKSKAYT [NEK8] | 2.33 ± 0.084 | 2.14 ± 0.12 |  |  |
| HRRRTICGTPNYLSPEVLNKQGHG [PLK2] | 3.99 ± 0.19 | 4.17 ± 0.17 |  |  |
| HSSPVDLKIPQVRGMDLSWESRTG [LCOR] | 3.43 ± 0.33 | 3.65 ± 0.31 |  |  |
| HSVLQIRYSGKILKNNETLVQHGV [IQUB] | 2.09 ± 0.035 | 2.31 ± 0.28 |  |  |
| HTDIKPENILMCVDDAYVRRMAAE [SRPK2] | 4 ± 0.22 | 4.07 ± 0.27 |  |  |
| HTQVLPDVRLLPRRLPLAFRDATS [DYRK1B] | 2.84 ± 0.32 | 3.04 ± 0.22 |  |  |

| Sequence | protein stability index [1] | protein stability index [2] | protein stability index [3] | protein stability index [4] |
| --- | --- | --- | --- | --- |
| HVIHIIDFGLAKEYIDPETKKHIP [CSNK1G1] | 1.99 ± 0.29 | 2.16 ± 0.087 |  |  |
| HVKKLQQKVATLEKRNRQLRERVK [CCDC3] | 3.72 ± 0.26 | 4 ± 0.61 |  |  |
| IADRAAHDESPGNNVVDISVPPTT [RAB11B] | 5.43 ± 0.24 | 5.21 ± 0.13 |  |  |
| IAKNLVEKGILTTEKQNFLLFDMT [GOLPH3L] | 2.06 ± 0.18 | 2.15 ± 0.22 |  |  |
| ICCWSFYGQGRKIAEVCCTSIVYA [KCTD10] | 2.98 ± 0.44 | 3.44 ± 0.54 |  |  |
| IEKEVFPIMAKEGQLYAMELQGFW [GMPPB] | 2.77 ± 0.44 | 2.27 ± 0.37 |  |  |
| IELDRTIMPDGTIVTTVTTVQSRP [C2CD2L] | 2.1 ± 0.14 | 2.09 ± 0.23 |  |  |
| IEQDAVVPSEWLSSVYKQQWFAML [GMCL1] | 2.26 ± 0.098 | 2.78 ± 0.3 |  |  |
| IFDEDHDEMVIVKDIDMFSMCEHH [GCH1] | 3.16 ± 0.24 | 3.31 ± 0.13 |  |  |
| IFGSNKWTTEQQQRFHEICSNLVK [ARL6IP1] | 2.98 ± 0.13 | 3.03 ± 0.14 |  |  |
| IGMPFNQLGTLAGSKYYNVEAMYC [SMG5] | 2.36 ± 0.51 | 2.27 ± 0.3 |  |  |
| IGSSVMAASLVTMGIVNLNIHMNF [SLC2A12] | 3.05 ± 0.24 | 3.13 ± 0.17 |  |  |
| IHGFPWWPARVLDISLGQKEDGEP [PWWP2B] | 3.05 ± 0.18 | 3.54 ± 0.4 |  |  |
| IHLREDLVQDQDLEAIRKQDLVEL [ZER1] | 4.5 ± 0.096 | 4.56 ± 0.28 |  |  |
| IHPDEDISLEERRAQLPKYQRNLP [ZNF207] | 4.19 ± 0.27 | 4.46 ± 0.31 |  |  |
| IIELLGSIPRHFALSGKYSREFFN [SRPK2] | 2.75 ± 0.54 | 2.56 ± 0.39 |  |  |
| IIVRTTNKKYYKKFSIPDLDRHQL [DPCD] | 2.29 ± 0.55 | 2.14 ± 0.29 |  |  |
| IKDKEAPLHVAQTRLYLRSHRPNM [TEKT4] | 3.23 ± 0.25 | 3.23 ± 0.25 |  |  |
| IKGLQRKERLKPAHIHLQQLTCFS [KRT34] | 2.3 ± 0.39 | 2.36 ± 0.37 |  |  |
| IKPPPPLVLNSQQSDTLEQREEHE [RAD54B] | 5.23 ± 0.13 | 5.3 ± 0.34 |  |  |
| ILGSGEEGPQVGPSAAQTLRSFCA [ADAMTS4] | 3.7 ± 0.5 | 3.95 ± 0.53 |  |  |
